Data reported in a protein production outcome set (Wang et al. 2014).

Experiment: label from the status in PepcDB records
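Further: failed if final PepcDB status was selected cloned or expressed and not failed if soluble or beyond.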

| Sequence | protein production |
| --- | --- |
| MTPFTLCAATSSGNPHNNHYPNHHHITDQTSLEQVAWLDHVAATYTGDRRSSASFISSDCVVMDIDNDHTDNPDEWITPDDLAELMAGVEFMTATSRNHQKPKRTLSARPRFHVYFPISPVTDADTYAGLKRRLAGRFGFFDPQALDAGRFIYGTTNPETTIHNGTKLLDAWLDEADEIDVFAAFDASTQVIGEGSRNATLSRFAGRVLIRYGQTAQARDLFDRKASLCEPPLSDHELESIWQSACRFAAKVEAQPGYLSPEAYAELTSLRPEDFTDVGQASMLTAEYSSRLAFTEATDWLVYEGGVWSESAPAAQGIAQELTDRQLAEAGHLLEKARDELMVTGANAVLAAASSKAKALGGFTSPQRAAYRAFEDAKAYEAFVLKRRESRAITSCLREAHPMLLTTPARLDADPYLLNTPGGTWDVRDGTRRDHNPLDLITKQTALDPTDTGAEIWNRALNVFFQSDRELIGYVQRIVGLAAIGTVMVEALVIAYGDGRNGKSTFWNTIARVLGTYAGNMSADVLTIGGNRNVKPELAEAKGKRLIIAAESEEGVRLSTSTVKQLASTDQIYAEKKYKAPFAFTPSHTLILYTNHLPRVGAMDAGIWRRLIVIPFNAVIESSSDVKNYADHLYETAGGAVLAWIMEGSRLIHAEDYQLTPPAQVVAASSAYREENNWFAQFLDARCEVDPSLSERAGDLYQEYRAWAQSTSGWARPMADFNATLEQSGFERRKSKHGMYVYGLALTSEFNS | failed |
| MKTKAKISSRWLRFRALLIDIFLIYIPILYLFYFLLGSKEAFLNNHFITTLCTFLFGLIQAIFLTKKAQSPGLKAYDLYLIDIKTGKKLSFLRILLRYVIFIISFGLLFGLFVSFVRKDRLNLHDILTQSCIATKSIKKG | failed |
| MKRKSIFLTFGLLVLSWIGCVENDLPYPTIVGQITEMEVAGMTSCRILGASNTVEIKVADTIDLRDLRVEKLVVTEGMKVYPDSAACLDIAHFPDTGFVSADSLPAGMDTRMNFLNPVKFRLSLYQDYDWTVNVSRDIVRKIKIKNQVGSALIDDYTKNVIVYVDSTEQPSLRNIEIEELQLGSSIAQTTPDPSKVVDFTRPRVFYVTAFDETEEWTLSVQYPNANVQLTQLSAWTRRAYVSGSISKGEVEAEYRKAGETVWESVLPNEISYEGEDFLIMMTHLAAGTNYEYRLTMNGTVGEILTFTTDTIMQVPNLGFDDWVMKNEKTWYPNATLDDADHFWDSGNEGASIASRNPTAPETGDVVKGRAVRMASDYISIASKFAAGNIYTGDFVGLAGIEGAELDFGQPYTGRPSALKGYYRYTPGVIDQAKAPYDALMGQTDSCHIYIGLFDWSAPFRVNTTTGTFVDLTWNNESMIAFGELKSNEATGSEYKQFKINLTYRDYFTHPKYILIVASASKYGDYFTGSTSSVMYLDECELVFE | failed |
| MNSYPLISVIMSVYKEEREWLVSSIQSILDQTVSDFEFIIILDFPNSELLKTLKDFEKKDSRIIIYQNEKNVGLVESLNTALSFSRGKYIARMDADDISHKNRFEKQLKYITLNNLDLVGGNVNIFHSNKGIYNTTDKVQSDYFLCKLLKIGTIGIVHPTFFSKRNVYDTIGGYYHAECAEDLELLMRANLNGFKIGNIPDVILDCRYSEKSITKENAYFMFCTVKYLKSLYRSSLKSGDYKFNSNYIELYLYDENNKLAFSEKQNLMSEARHSFNEKKYISFLINLIKSILISRTVFFSIKVNVMSFLFRKVEVKIPKVLLACIKIKLQLEHHHHHH | not failed |
| MKENKLDYIPEPMDLSLVDLPESLIQLSERIAENVHEVWAKARIDEGWTYGEKRDDIHKKHPCLVPYDELPEEEKEYDRNTAMNTIKMVKKLGFRIEKED | not failed |
| MRGADGRVTDADYRELRGATETPREAVVVGLAGEVGLTSAEIPRVRPCDVAPHDHDGVTHYFLAVPGADGGSDRDAYLPPAVERDIRRRADAAGLADDDPLVDVSARRVQTLVNAVAGRTDTAGLDGVAAQDLRSFFARRLLTGAGVDPRVVAAVGGWSRLASLDQYAAVDAVDRDAIARAFDGTTRAPTDRSEQRAHDRVDEAHSAVLAAGDALSDASTRGAVETAVCEALAASDAYEMAWLARPTTRDDVTVAATAGGDRAIRDDASAAPGATLVQAALDDGTGLFTPAASAAPAVAALREHAAAAGVQAMGVVPVAGPEAAHGVLAVGASTARFSQRERTLITDLGRRVGRAVALAEQRHRLLTDTVLEVAFEVRAGSVFARAAVEQGCDLSLEGVVPGDRQTLVFFVRVAGAPADGVRDWLHDHDGVVSVRVVRDQGGEAVLAVGVAPGADLAMAVVSHGGTIRDLSAGPGGERVVAGVAPETDVRALLDALATAFPGVSLAAKRERARGDETGQRDGASLHDALTDKQAAVLRAAFHAGYFEWPRESTAEDLAADMGVTAPTLHNHLRRAQQKLLATVIDSDGGCDPDTPWPDTRQ | failed |
| MNSIKNVPARVLSRRPGHSLEAEREQFDKTQAISISKAINTQEAPVKEKHARRIILGTHHEKGAFTFWSYAIGLPLPSSSILSWKFCHVLHKVLRDGHPNVLHDCQRYRSNIREIGDLWGHLHDRYGQLVNVYTKLLLTKISFHLKHPQFPAGLEVTDEVLEKAAGTDVNNIFQLTVEMFDYMDCELKLSESVFRQLNTAIAVSQMSSGQCRLAPLIQVIQDCSHLYHYTVKLLFKLHSCLPADTLQGHRDRFHEQFHSLRNFFRRASDMLYFKRLIQIPRLPEGPPNFLRASALAEHIKPVVVIPEEAPEDEEPENLIEISTGPPAGEPVVVADLFDQTFGPPNGSVKDDRDLQIESLKREVEMLRSELEKIKLEAQRYIAQLKSQVNALEGELEEQRKQKQKALVDNEQLRHELAQLRAAQLEGERSQGLREEAERKASATEARYNKLKEKHSELVHVHAELLRKNADTAKQLTVTQQSQEEVARVKEQLAFQVEQVKRESELKLEEKSDQLEKLKRELEAKAGELARAQEALSHTEQSKSELSSRLDTLSAEKDALSGAVRQREADLLAAQSLVRETEAALSREQQRSSQEQGELQGRLAERESQEQGLRQRLLDEQFAVLRGAAAEAAGILQDAVSKLDDPLHLRCTSSPDYLVSRAQEALDAVSTLEEGHAQYLTSLADASALVAALTRFSHLAADTIINGGATSHLAPTDPADRLIDTCRECGARALELMGQLQDQQALRHMQASLVRTPLQGILQLGQELKPKSLDVRQEELGAVVDKEMAATSAAIEDAVRRIEDMMNQARHASSGVKLEVNERILNSCTDLMKAIRLLVTTSTSLQKEIVESGRGAATQQEFYAKNSRWTEGLISASKAVGWGATQLVEAADKVVLHTGKYEELIVCSHEIAASTAQLVAASKVKANKHSPHLSRLQECSRTVNERAANVVASTKSGQEQIEDRDTMDFSGLSLIKLKKQEMETQVRVLELEKTLEAERMRLGELRKQHYVLAGASGSPGEEVAIRPSTAPRSVTTKKPPLAQKPSVAPRQDHQLDKKDGIYPAQLVNY | not failed |
| MLSIMRRPIAALAVLLAAAVSIPAQAQFSDSYKFLEAVRKKEGDKVTEALNEPGTQIVNTKDYTTGQTGLHIVVARRDLVWVQFLVAKGANVNARDNRGVTPLVLAADIGFIEGVDELIRSGARVDEANNTGETPLISAVHRRDLALVRMLIKAGANPDRPDNSGRSARDYAMLEGKGSPLLGEIEKATKDAKAAGPQKTYGPSF | failed |
| MSLRRRFCAFLKGMQSPMIFDVKAPILGFETIHKMRLQKIDEIFLRLNSTEENSVVSFTLVNPFALRKYEFEVPTPLKILLELEGAKSVLVANIMVVQTPIELSTVNYLAPLIFNLDKQLMGQVVLDSNKYPHYHLRENILSHTHE | failed |
| MSIEIRKLSIEDLETLIEVARESWKWTYAGIYSEEYIESWIREKYSKEKLLNEIVRSQSNLDILFLGAFADSTLIGFIELKIIANKAELLRLYLKPEYTHKKIGKTLLLEAEKIMKKKGILECRLYVHRQNSVGFSFYYKNGFKVEDTDGSDFIMEKKY | not failed |
| MLNTLIVGASGYAGAELVSYVNRHPHMTITALTVSAQSNDAGKLISDLHPQLKGIVDLPLQPMSDVRDFSADVDVVFLATAHEVSHDLAPQFLQAGCVVFDLSGAFRVNDRAFYEKYYGFTHQYPELLEQAVYGLAEWNVDKLNTANLIAVPGCYPTAAQLSLKPLIDGGLLDLTQWPVINATSGVSGAGRKAAISNSFCEVSLQPYGVFTHRHQPEIAVHLGAEVIFTPHLGNFPRGILETITCRLKAGVTHAQVADVLQKAYGDKPLVRLYDKGVPALKNVVGLPFCDIGFAVQGEHLIVVATEDNLLKGAAAQAVQCANIRFGFAETQSLI | not failed |
| QAEMTQRMQQLEALNDLNRAILAASDAEQIAQIGLRSLRRQVPFWGATAMLIDWESSCARVLAIERAPGASYDPGQRLSLVSYGMEDLERMKRGETCVVTDLGQIPRRALTLERLYQQGIQSYARIPLLAEGRLLGMLNLASDAVGAFDAAQLDVAQAYARHLAVSLQQSLL | failed |
| MSSLRHRRYVLGGLLAAIGVLAAAVLWNVVGTVFFAVTVAYVLYPARQRLVNRGVPRRVASGLLTAAAFLTVVVLLAPIAWTIFRQRGAILEFLNNLPDELPVEAFGFVVTIDVADLVDTTADTLQSIAISLAADAIFLALQLLMFALVLYGLLLRPNAVGRAAFRVTPSPYHDILVALHRRIAGTLYALYVIQAATAVITFPLALIVFYLLGYPDVFVLAVLAALLQFIPIVGPGMLAAGLAGHDVLVGMPHRAVGVIILGPLFVGLLPDLLVRPRLAASKAKLPASLYFVGFVGGVLTVGVIGIIAGPLVVALLVEAVNLLSERNQSAA | failed |
| MRRVISIFRKLSAVYCHTGNFAEGIRVCKYALGRFTEMEDKYKCIFTFNMSLYYNYLGEYGKALNAITGFESVIKATYEDRYYKVLLLKADCYYGAERYAESLSIYNKLISITLKDDFNNLCVYYNNMTQVYLRMGKRDMAVNCINTVINNLHNISDDFEALPQIYAELGKSYLMMADNDKSIKYLTIALKLSKDFKYYSVTKDILNELSKIKGNSNKLKLKDEFIILTENMGRSYDSLNHSLVFNIIQYYTRLGDVASINELCEYCKERKVG | failed |
| MRKDDVVIVTCAITGAIHTPSMSPYLPVTPDQIVEEAVKAAEAGAGMVHIHARDPKDGRPTTDVEVFRYICREIKKQSDVVINVTTGGGGTLGIPVEERAKVVPALKPEIATFNMGSMNFAIHPLLKKYKEFKYDWEPEYLEMTRDIVFRNTFKDLEALSRIFKENDTKPELECYDIGQIYNTAFMFHEGYLEPPLRLQFIHGILGGIGTAVEDVLFMKQTADRLIGRENYTWSLVGAGRFQMPLGTLAVIMGGDVRVGLEDSLYIERGKLAKSNAEQVEKMVRIVKELGKRPATPDEVREILGLKGKERVNF | not failed |
| MKIFKKSDISGIFHELGILISTIGFIMLLPSFIGIYFHEPFFYFLFPSLFFMILGLLINKITKPISVKLKHAMVISALAWLMASLIGAIPFYIGIEYFSYLDGVFESMSAWTTTGFSIVGDVESLPRTLQFWRSFEQWIGGVGVLAMVITILSKAGASAYYRAEAREEKIMPSTIGTIKKIWQIYLLYTTIGICLLYLSGLNLWSALNICMCGISTGGMSISNQSFPFNNFAKIIMTLIMYIGGVVSFSVHHNVLTGRRVDDIQTKTSIPILFFAAFVITLTSGIDPLDSLFTVVSAMTSTGFSSVQISSLTNISIAVLIFVMAIGGATGTTTGGIKLIRLVIMAKGFYYRLKEVVSPGNAIIYKKIGKNQLSDFLILDAFIIAFAYIIHYLFGTLVLISLGYDPFLSVFESVSLVANMGLSVDIVNHSLHPIAKILGVFSMWVGRLEIIPIYVLIILPLYLKLKDVGKNKISKNRKL | failed |
| MEEISGGALTDTLTDIVTWAAKEVGAIALGASLGAIFGTAYAGRWGGVSGGIFGIGSIGQGVGMIAGVILGGVCFGIAAGIVGWDMTLDYAQGVMDAIYDGTLNFWSN | failed |
| MFALISKINPGAWWLIFAIATDVLSTFYSAKGNGLVNKTAQGIALVLYIISFACAAIALKYMQAGILYVLWSGVGVLATAFLAKIFLGQNIDVAGWIGIGFITVGLMIIAQYY | failed |
| MMTHYSDNTLKVAHQGFEFFTQGLATGEWQKFLDMLTEDFTFWFPMGEFHGLNVGKERAKEFFTYVSESFHTGIQISSLDRVTSNETTVVFEFRDEGLFLGKPYKNRVAVSFDVRGDKICSYREYFGSDGKSN | not failed |
